Assays:
[1] = molecular target: T1, Human HER3, endogenous, on human cancer cell lines (human, UniProt P21860 20-1342); experiment: cell-based or functional assay
[2] = molecular target: T1, Human HER3, endogenous, on human cancer …; experiment: FACS titration on SK-Br-3 cells
[3] = molecular target: T1, Human HER3, endogenous, on human cancer …; experiment: cell-based or functional assay; remark: listed apart in the source
[4] = molecular target: T2, Mu HER3 (CD33-[Murine HER3, residues 20-643]-TAG) (mouse, UniProt Q61526 20-643); experiment: solution equilibrium titration (SET), IgG
T2 construct: range 20-643; CD33 leader left out as signal; also called mu HER3-Tag; not shown: C-terminal TAG (e.g. FLAG TAG)

[5] = molecular target: T3, Rat HER3 (CD33-[Rat HER3, residues 20-643]-TAG) (rat, UniProt Q62799 20-643); experiment: solution equilibrium titration (SET), IgG
T3 construct: range 20-643; CD33 leader left out as signal; also called ra HER3-Tag; not shown: C-terminal TAG (e.g. FLAG TAG)

[6] = molecular target: T4, Hu HER3 (CD33-[Human HER3, residues 20-640]-TAG) (human, UniProt P21860 20-640); experiment: solution equilibrium titration (SET), IgG
T4 construct: N-terminal CD33 leader is a secretion signal and is left out; also called hu HER3-Tag; HER3-Tag; not shown: C-terminal TAG (e.g. FLAG TAG)

[7] = molecular target: T5, Cyno HER3 (CD33-[Cyno HER3, residues 20-643]-TAG) (cynomolgus, UniProt G7PIG5 20-643); experiment: solution equilibrium titration (SET), IgG
T5 construct: range 20-643; CD33 leader left out as signal; also called cy HER3-Tag; not shown: C-terminal TAG (e.g. FLAG TAG)

[8] = molecular target: T1, Human HER3, endogenous, on human cancer …; experiment: cell-based or functional assay; remark: listed apart in the source

| Binder | BT-474 proliferation % inhibition at 10 µg/ml IgG [1] [%] | MCF7 pHER3 % inhibition [3] [%] | MCF7 pHER3 IC50 [3] [pM] | SK-Br-3 pHER3 % inhibition [3] [%] | SK-Br-3 pHER3 IC50 [3] [pM] | Kd [4] [pM] | Kd [5] [pM] | Kd [6] [pM] | Kd [7] [pM] | BT-474 pAkt (S473) % inhibition [8] [%] | also measured |
| --- | --- | --- | --- | --- | --- | --- | --- | --- | --- | --- | --- |
| MOR09823 (antibody, human IgG1, kappa, V domains shown, tested as IgG) VH: QVQLVESGGGLVQPGGSLRLSCAASGFTFSSYAMSWVRQAPGKGLEWVSVTGAVGRTYYPDSVKGRFTISRDNSKNTLYLQMNSLRAEDTAVYYCARWGDEGFDIWGQGTLVTVSS VL: DIQMTQSPSSLSASVGDRVTITCRASQGISNWLAWYQQKPGKAPKLLIYGASSLQSGVPSRFSGSGSGTDFTLTISSLQPEDFAVYYCQQYSSFPTTFGQGTKVEIKR | 39.8 | 89 | 181 | 59 | 56 | 2 | 11 | 9 | 4 | 57 | MCF7 (neuregulin stimulated) proliferation % inhibition at 10 µg/ml IgG [1]: 82%; SK-Br-3 proliferation % inhibition at 10 µg/ml IgG [1]: 39%; EC50 [2]: 630 pM; SK-Br-3 pAkt (S473) % inhibition [8]: 92%; SK-Br-3 pAkt (S473) IC50 [8]: 55 pM |
| MOR10703 A50V_N52G (antibody, human IgG1, kappa, V domains shown, Variant of MOR10703; IgG1/kappa) VH: EVQLLESGGGLVQPGGSLRLSCAASGFTFSSYAMSWVRQAPGKGLEWVSVIGSQGKSTYYADSVKGRFTISRDNSKNTLYLQMNSLRAEDTAVYYCARWGDEGFDIWGQGTLVTVSS VL: DIQMTQSPSSLSASVGDRVTITCRASQGISNWLAWYQQKPGKAPKLLIYGASSLQSGVPSRFSGSGSGTDFTLTISSLQPEDFATYYCQQYSSFPTTFGQGTKVEIKR | – | – | – | – | – | – | – | 22 | – | – | – |
| MOR10702 (antibody, human IgG1, kappa, V domains shown, tested as IgG) VH: EVQLLESGGGLVQPGGSLRLSCAASGFTFSSYAMSWVRQAPGKGLEWVSVISAWGHVKYYADSVKGRFTISRDNSKNTLYLQMNSLRAEDTAVYYCARWGDEGFDIWGQGTLVTVSS VL: DIQMTQSPSSLSASVGDRVTITCRASQGISNWLAWYQQKPGKAPKLLIYGASSLQSGVPSRFSGSGSGTDFTLTISSLQPEDFATYYCQQYSSFPTTFGQGTKVEIKR | 43.8 | – | – | – | – | 5 | 6 | 3 | 3 | 55 | – |
| MOR09825 (antibody, human IgG1, kappa, V domains shown, tested as IgG) VH: QVQLVESGGGLVQPGGSLRLSCAASGFTFSSYAMSWVRQAPGKGLEWVSAINSQGKSTYYADSVKGRFTISRDNSKNTLYLQMNSLRAEDTAVYYCARWGDEGFDIWGQGTLVTVSS VL: DIQMTQSPSSLSASVGDRVTITCRASQGISNWLAWYQQKPGKAPKLLIYGASSLQSGVPSRFSGSGSGTDFTLTISSLQPEDFAVYYCQQYSSFPTTFGQGTKVEIKR | 37.2 | 80 | 399 | 66 | 169 | 24 | 96 | 25 | 56 | 69 | MCF7 (neuregulin stimulated) proliferation % inhibition at 10 µg/ml IgG [1]: 63%; SK-Br-3 proliferation % inhibition at 10 µg/ml IgG [1]: 41%; EC50 [2]: 839 pM; MCF7 pAkt (S473) IC50 [8]: 294 pM; SK-Br-3 pAkt (S473) % inhibition [8]: 91%; SK-Br-3 pAkt (S473) IC50 [8]: 156 pM |
| MOR12610 (antibody, human IgG1, kappa, V domains shown, tested as IgG) VH: QVQLVESGGGLVQPGGSLRLSCAASGFTFSSYAMSWVRQAPGKGLEWVSGTGPYGGTYYPDSVKGRFTISRDNSKNTLYLQMNSLRAEDTAVYYCARWGDEGFDIWGQGTLVTVSS VL: DIQMTQSPSSLSASVGDRVTITCRASQGISNWLAWYQQKPGKAPKLLIYGASSLQSGVPSRFSGSGSGTDFTLTISSLQPEDFAVYYCQQYSSFPTTFGQGTKVEIKR | – | 84 | 126 | 75 | 192 | – | – | 37 | – | – | – |
| MOR10701 R55G (antibody, human IgG1, kappa, V domains shown, Variant of MOR10701; IgG1/kappa) VH: EVQLLESGGGLVQPGGSLRLSCAASGFTFSSYAMSWVRQAPGKGLEWVSVTGAVGGSTYYPDSVKGRFTISRDNSKNTLYLQMNSLRAEDTAVYYCARWGDEGFDIWGQGTLVTVSS VL: DIQMTQSPSSLSASVGDRVTITCRASQGISNWLAWYQQKPGKAPKLLIYGASSLQSGVPSRFSGSGSGTDFTLTISSLQPEDFATYYCQQYSSFPTTFGQGTKVEIKR | – | – | – | – | – | – | – | 18 | – | – | – |
| MOR10703 N52S (antibody, human IgG1, kappa, V domains shown, Variant of MOR10703; IgG1/kappa) VH: EVQLLESGGGLVQPGGSLRLSCAASGFTFSSYAMSWVRQAPGKGLEWVSAISSQGKSTYYADSVKGRFTISRDNSKNTLYLQMNSLRAEDTAVYYCARWGDEGFDIWGQGTLVTVSS VL: DIQMTQSPSSLSASVGDRVTITCRASQGISNWLAWYQQKPGKAPKLLIYGASSLQSGVPSRFSGSGSGTDFTLTISSLQPEDFATYYCQQYSSFPTTFGQGTKVEIKR | – | – | – | – | – | – | – | 57 | – | – | – |
| MOR10703 A50V_N52S (antibody, human IgG1, kappa, V domains shown, Variant of MOR10703; IgG1/kappa) VH: EVQLLESGGGLVQPGGSLRLSCAASGFTFSSYAMSWVRQAPGKGLEWVSVISSQGKSTYYADSVKGRFTISRDNSKNTLYLQMNSLRAEDTAVYYCARWGDEGFDIWGQGTLVTVSS VL: DIQMTQSPSSLSASVGDRVTITCRASQGISNWLAWYQQKPGKAPKLLIYGASSLQSGVPSRFSGSGSGTDFTLTISSLQPEDFATYYCQQYSSFPTTFGQGTKVEIKR | – | – | – | – | – | – | – | 16 | – | – | – |
| MOR10701 (antibody, human IgG1, kappa, V domains shown, tested as IgG) VH: EVQLLESGGGLVQPGGSLRLSCAASGFTFSSYAMSWVRQAPGKGLEWVSVTGAVGRSTYYPDSVKGRFTISRDNSKNTLYLQMNSLRAEDTAVYYCARWGDEGFDIWGQGTLVTVSS VL: DIQMTQSPSSLSASVGDRVTITCRASQGISNWLAWYQQKPGKAPKLLIYGASSLQSGVPSRFSGSGSGTDFTLTISSLQPEDFATYYCQQYSSFPTTFGQGTKVEIKR | 43.6 | – | – | 74 | 370 | 6 | 10 | 4 | 4 | 59 | – |
| MOR10701 R55K (antibody, human IgG1, kappa, V domains shown, Variant of MOR10701; IgG1/kappa) VH: EVQLLESGGGLVQPGGSLRLSCAASGFTFSSYAMSWVRQAPGKGLEWVSVTGAVGKSTYYPDSVKGRFTISRDNSKNTLYLQMNSLRAEDTAVYYCARWGDEGFDIWGQGTLVTVSS VL: DIQMTQSPSSLSASVGDRVTITCRASQGISNWLAWYQQKPGKAPKLLIYGASSLQSGVPSRFSGSGSGTDFTLTISSLQPEDFATYYCQQYSSFPTTFGQGTKVEIKR | – | – | – | – | – | – | – | 11 | – | – | – |
| MOR09974 (antibody, human IgG1, kappa, V domains shown, tested as IgG) VH: QVQLVESGGGLVQPGGSLRLSCAASGFTFSSYAMSWVRQAPGKGLEWVSVINPSGNFTNYADSVKGRFTISRDNSKNTLYLQMNSLRAEDTAVYYCARWGDEGFDIWGQGTLVTVSS VL: DIQMTQSPSSLSASVGDRVTITCRASQGISNWLAWYQQKPGKAPKLLIYGASSLQSGVPSRFSGSGSGTDFTLTISSLQPEDFAVYYCQQYSSFPTTFGQGTKVEIKR | – | 69 | 3070 | 67 | 1930 | 120 | – | 350 | 200 | – | MCF7 (neuregulin stimulated) proliferation % inhibition at 10 µg/ml IgG [1]: 20%; SK-Br-3 proliferation % inhibition at 10 µg/ml IgG [1]: 35%; SK-Br-3 pAkt (S473) % inhibition [8]: 85%; SK-Br-3 pAkt (S473) IC50 [8]: 814 pM |
| MOR12609 (antibody, human IgG1, kappa, V domains shown, tested as IgG) VH: QVQLVESGGGLVQPGGSLRLSCAASGFTFSSYAMSWVRQAPGKGLEWVSVINGLGYTTFYADSVKGRFTISRDNSKNTLYLQMNSLRAEDTAVYYCARWGDEGFDIWGQGTLVTVSS VL: DIQMTQSPSSLSASVGDRVTITCRASQGISNWLAWYQQKPGKAPKLLIYGASSLQSGVPSRFSGSGSGTDFTLTISSLQPEDFAVYYCQQYSSFPTTFGQGTKVEIKR | – | 86 | 5 | 71 | 241 | – | – | 10 | – | – | – |
| MOR10703 N52G (antibody, human IgG1, kappa, V domains shown, Variant of MOR10703; IgG1/kappa) VH: EVQLLESGGGLVQPGGSLRLSCAASGFTFSSYAMSWVRQAPGKGLEWVSAIGSQGKSTYYADSVKGRFTISRDNSKNTLYLQMNSLRAEDTAVYYCARWGDEGFDIWGQGTLVTVSS VL: DIQMTQSPSSLSASVGDRVTITCRASQGISNWLAWYQQKPGKAPKLLIYGASSLQSGVPSRFSGSGSGTDFTLTISSLQPEDFATYYCQQYSSFPTTFGQGTKVEIKR | – | – | – | – | – | – | – | 60 | – | – | – |

From patent US20130330324A1 (Novartis, published 2013)
